The data set addresses T1, Rev1 G193R (1-746) (Saccharomyces cerevisiae (expression …, UniProt P12689 1-746, G193R)).
T1 sequence: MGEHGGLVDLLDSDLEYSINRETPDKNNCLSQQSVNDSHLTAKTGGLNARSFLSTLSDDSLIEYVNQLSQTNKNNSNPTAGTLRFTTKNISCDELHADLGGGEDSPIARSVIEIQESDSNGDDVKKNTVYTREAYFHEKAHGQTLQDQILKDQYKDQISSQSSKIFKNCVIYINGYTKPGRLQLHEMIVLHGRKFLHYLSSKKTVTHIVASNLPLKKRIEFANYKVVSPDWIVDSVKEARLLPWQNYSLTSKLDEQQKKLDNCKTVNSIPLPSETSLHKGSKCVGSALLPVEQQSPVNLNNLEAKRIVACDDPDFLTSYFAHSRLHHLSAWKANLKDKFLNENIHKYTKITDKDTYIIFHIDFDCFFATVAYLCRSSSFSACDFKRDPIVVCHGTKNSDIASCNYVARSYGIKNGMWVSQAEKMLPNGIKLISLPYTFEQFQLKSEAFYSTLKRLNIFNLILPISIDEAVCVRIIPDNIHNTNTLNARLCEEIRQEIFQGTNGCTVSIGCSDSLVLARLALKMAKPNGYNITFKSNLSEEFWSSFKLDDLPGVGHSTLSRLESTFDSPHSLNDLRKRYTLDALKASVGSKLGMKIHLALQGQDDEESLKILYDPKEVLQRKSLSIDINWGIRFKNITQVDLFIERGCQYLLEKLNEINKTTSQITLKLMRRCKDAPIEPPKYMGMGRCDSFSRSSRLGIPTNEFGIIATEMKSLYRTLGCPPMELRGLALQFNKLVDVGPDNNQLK
In words: pre-steady-state burst amplitude titration.

As a reminder, the Kd is the concentration at which binding is half-saturated. The low end stands for tighter binding, the high end for weaker binding.

B1: 24/45-mer primer-template (dsDNA)
DNA 1: GCCTCGCAGCCGTCCAACCAACTC
DNA 2: GGACGGCATTGGATCGACCTGGAGTTGGTTGGACGGCTGCGAGGC
For B1, binding was characterised by a dissociation constant (Kd) of 16 ± 5 nM.

For the origin of these results see publication PMC3580236.
